B1: Azoarcus group I ribozyme (parent)
chain: GUGCCUUGCGCCGGGAAACCACGCAAGGGAUGGUGUCAAAUUCGGCGAAACCUAAGCGCCCGCCCGGGCGUAUGGCAACGCCGAGCCAAGCUUCGGCGCCUGCGCCGAUGAAGGUGUAGAGACUAGACGGCACCCACCUAAGGCAAACGCUAUGGUGAAGGCAUAGUCCAGGGAGUGGCGAAAGUCACACAAACCGG

Variants of: B1
Assay: reverse-splicing fitness (ratio to wild type); higher = more active; in vitro selection; Mg2+ level not given
Summary of the method: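 An in vitro group I ribozyme library with randomized positions was T7-transcribed and gel-purified. In triplicate, 10 pmol RNA in EPPS pH 7.5 was reacted with 50 pmoles of a 30-nt RNA substrate for 1 h at 37 °C across several added MgCl2 levels (1–48 mM), then stopped with EDTA. Products were reverse transcribed from a substrate-complementary primer, PCR-amplified and sequenced (HiSeq 4000). Fitness is a variant's read proportion after selection over that before, normalised to wild type.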

Variant | reverse-splicing fitness
C82G A120C C150G C169U | 0.0121
C82G A120C C150G C169A | 0.00942
C82G A120C C150G C169G | 0.00797
C82G A120C A145U C150A C169A U176A | 0.0178
C82G A120C A145U C150A C169A U176C | 0.0107
C82G A120C A145U C150A C169A U176G | 0.00421
C82G A120G A145U C150U C169G U176A | 0.015
C82G A120G A145U C150U C169G U176G | 0.00476
C82G A120G A145U C150U C169G U176C | 0.0218
C82G A120G A145C C150U C169G U176A | 0.0238
C82G A120G A145C C150U C169G U176C | 0.0128
C82G A120G A145C C150U C169G U176G | 0.00426
C82G A120C A145U C169U U176C | 0.0154
C82G A120C A145U C169U U176G | 0.00344
C82G A120C A145U C169U U176A | 0.0158
C82G A120G A145U | 0.0294
C82G A120G A145G | 0.0281
C82G A120G A145C | 0.0276
C82G A120C C169G U176C | 0.0176
C82G A120C C169G U176A | 0.0172
C82G A120C C169G U176G | 0.00385
C82G A120C A145G C150U C169U | 0.0243
C82G A120C A145G C150U C169G | 0.00909
C82G A120C A145G C150U C169A | 0.0102

Variant | reverse-splicing fitness
C82G A120C C150U C169G U176G | 0.0048
C82G A120C C150U C169G U176A | 0.0141
C82G A120C C150U C169G U176C | 0.0162
C82G A120C A145G C169G U176C | 0.0241
C82G A120C A145G C169G U176G | 0.00417
C82G A120C A145G C169G U176A | 0.0164
C82G A120C A145U C150G C169U U176C | 0.012
C82G A120C A145U C150G C169U U176G | 0.00547
C82G A120C A145U C150G C169U U176A | 0.00813
C82G A120C C169U U176G | 0.00468
C82G A120C C169U U176A | 0.019
C82G A120C C169U U176C | 0.0155
C82G A120C A145U | 0.21
C82G A120G A145C C150A C169A U176C | 0.00516
C82G A120G A145C C150A C169A U176G | 0.00483
C82G A120G A145C C150A C169A U176A | 0.0119
C82G A120C C150A C169A U176G | 0.00601
C82G A120C C150A C169A U176A | 0.0216
C82G A120C C150A C169A U176C | 0.0213
C82G A120G A145C C150G C169U U176A | 0.0154
C82G A120G A145C C150G C169U U176C | 0.0125
C82G A120G A145C C150G C169U U176G | 0.00495
C82G A120C A145U C150A C169U U176G | 0.00492
C82G A120C A145U C150A C169U U176A | 0.0151

Variant | reverse-splicing fitness
C82G A120C A145U C150A C169U U176C | 0.013
C82G A120C A145U C150G | 0.0201
C82G A120C A145U C150U | 0.11
C82G A120C A145U C150A | 0.0209
C82G A120G A145U C150G C169U | 0.01
C82G A120G A145U C150G C169G | 0.0107
C82G A120G A145U C150G C169A | 0.0112
C82G A120C C150A C169A | 0.0151
C82G A120C C150A C169U | 0.0118
C82G A120C C150A C169G | 0.00837
C82G A120G A145C C169G U176G | 0.00393
C82G A120G A145C C169G U176A | 0.0291
C82G A120G A145C C169G U176C | 0.0224
C82G A120G A145C C150G U176C | 0.00894
C82G A120G A145C C150G U176A | 0.00713
C82G A120G A145C C150G U176G | 0.00333
C82G A120C C150U U176A | 0.0429
C82G A120C C150U U176C | 0.0574
C82G A120C C150U U176G | 0.0136
C82G A120G A145U C150G C169U U176A | 0.0125
C82G A120G A145U C150G C169U U176C | 0.0129
C82G A120G A145U C150G C169U U176G | 0.00487
C82G A120C C150U C169A U176A | 0.0177
C82G A120C C150U C169A U176G | 0.00618

Variant | reverse-splicing fitness
C82G A120C C150U C169A U176C | 0.0133
C82G A120G A145C C150U U176G | 0.00485
C82G A120G A145C C150U U176A | 0.00928
C82G A120G A145C C150U U176C | 0.00922
C82G A120G A145G C150G C169G U176A | 0.0108
C82G A120G A145G C150G C169G U176C | 0.0129
C82G A120G A145G C150G C169G U176G | 0.00567
C82G A120G A145C C150A | 0.00852
C82G A120G A145C C150G | 0.00798
C82G A120G A145C C150U | 0.0111
C82G A120C A145U C150G C169A U176G | 0.00473
C82G A120C A145U C150G C169A U176A | 0.0119
C82G A120C A145U C150G C169A U176C | 0.0102
C82G A120G A145G C150U C169G U176C | 0.0245
C82G A120G A145G C150U C169G U176A | 0.0169
C82G A120G A145G C150U C169G U176G | 0.00428
C82G A120G A145U C150G | 0.00803
C82G A120G A145U C150U | 0.0229
C82G A120G A145U C150A | 0.00866
C82G A120G A145C C150A C169G U176C | 0.0136
C82G A120G A145C C150A C169G U176A | 0.0232
C82G A120G A145C C150A C169G U176G | 0.00456
C82G A120C A145U C150U C169U U176A | 0.0152
C82G A120C A145U C150U C169U U176G | 0.00456

Variant | reverse-splicing fitness
C82G A120C A145U C150U C169U U176C | 0.0148
C82G A120C A145G C169A U176C | 0.0247
C82G A120C A145G C169A U176A | 0.0209
C82G A120C A145G C169A U176G | 0.00477
C82G A120C A145U C150U C169G U176C | 0.015
C82G A120C A145U C150U C169G U176G | 0.0044
C82G A120C A145U C150U C169G U176A | 0.0139
C82G A120C A145G C150U | 0.163
C82G A120G A145C C150G C169A | 0.0102
C82G A120G A145C C150G C169U | 0.00976
C82G A120G A145C C150G C169G | 0.0108
C82G A120G A145C C150U C169U U176G | 0.00404
C82G A120G A145C C150U C169U U176C | 0.0138
C82G A120G A145C C150U C169U U176A | 0.0184
C82G A120C A145U U176A | 0.0752
C82G A120C A145U U176C | 0.0999
C82G A120C A145U U176G | 0.0177
C82G A120G A145C C150U C169A U176C | 0.00669
C82G A120G A145C C150U C169A U176A | 0.0126
C82G A120G A145C C150U C169A U176G | 0.00471
C82G A120G A145G U176G | 0.00636
C82G A120G A145G U176C | 0.0211
C82G A120G A145G U176A | 0.0129
C82G A120C A145G C150U C169A U176A | 0.0194

Variant | reverse-splicing fitness
C82G A120C A145G C150U C169A U176C | 0.0158
C82G A120C A145G C150U C169A U176G | 0.0065
C82G A120C A145U C150U U176G | 0.0119
C82G A120C A145U C150U U176A | 0.0489
C82G A120C A145U C150U U176C | 0.0672
C82G A120G A145G C150A C169G | 0.0133
C82G A120G A145G C150A C169A | 0.0126
C82G A120G A145G C150A C169U | 0.011
C82G A120C A145U C150A C169G U176C | 0.0161
C82G A120C A145U C150A C169G U176G | 0.00461
C82G A120C A145U C150A C169G U176A | 0.014
C82G A120C C150A | 0.0228
C82G A120C C150U | 0.108
C82G A120C C150G | 0.0159
C82G A120C C150G C169G U176G | 0.00538
C82G A120C C150G C169G U176C | 0.00574
C82G A120C C150G C169G U176A | 0.0067
C82G A120G A145C U176G | 0.00484
C82G A120G A145C U176C | 0.0158
C82G A120G A145C U176A | 0.0133
C82G A120G A145U C150G C169G U176G | 0.00385
C82G A120G A145U C150G C169G U176A | 0.00742
C82G A120G A145U C150G C169G U176C | 0.00564
C82G A120G A145C C150A C169U U176C | 0.0106

Variant | reverse-splicing fitness
C82G A120G A145C C150A C169U U176G | 0.00463
C82G A120G A145C C150A C169U U176A | 0.0196
C82G A120G A145U C150G C169A U176C | 0.0121
C82G A120G A145U C150G C169A U176G | 0.00431
C82G A120G A145U C150G C169A U176A | 0.0112
C82G A120G A145C C150A C169G | 0.00875
C82G A120G A145C C150A C169U | 0.00751
C82G A120G A145C C150A C169A | 0.00825
C82G A120G A145G C169G U176C | 0.0345
C82G A120G A145G C169G U176G | 0.00379
C82G A120G A145G C169G U176A | 0.0221
C82G A120G A145U C150A C169U U176A | 0.02
C82G A120G A145U C150A C169U U176C | 0.0145
C82G A120G A145U C150A C169U U176G | 0.00418
C82G A120G A145U C150A U176C | 0.0139
C82G A120G A145U C150A U176G | 0.00553
C82G A120G A145U C150A U176A | 0.0105
C82G A120G A145C C169A U176G | 0.0031
C82G A120G A145C C169A U176C | 0.0123
C82G A120G A145C C169A U176A | 0.0144
C82G A120G A145C C150U C169U | 0.0103
C82G A120G A145C C150U C169A | 0.0116
C82G A120G A145C C150U C169G | 0.0163

From the RNAGym collection of RNA variant scans (doi:10.1093/molbev/msab373)
